Test results: patent publication US20230203202A1

Key:
[1] = target: poly-specificity reagent (PSR); experiment: flow cytometry PSR assay on protein A beads; same quadrant without PSR: 0.046
[2] = target: poly-specificity reagent (PSR); experiment: flow cytometry PSR assay on protein A beads; same quadrant without PSR: 9.17E-3
[3] = target: poly-specificity reagent (PSR); experiment: flow cytometry PSR assay on protein A beads; same quadrant without PSR: 0
[4] = target: poly-specificity reagent (PSR); experiment: flow cytometry PSR assay on protein A beads; same quadrant without PSR: 0.025

Row | Q2 (Expression-FITC high, Binding-PE high), + PSR [1] | Q3 (Expression-FITC low, Binding-PE high), + PSR [2] | Q3 (Expression-FITC low, Binding-PE high), + PSR [3] | Q2 (Expression-FITC high, Binding-PE high), + PSR [4] | Substance
1 | 69.8 | 0.82 |  |  | Rituximab (antibody)
2 |  |  | 0.049 | 0.37 | Trastuzumab (antibody)
